Reference: PMC6667474 (Scientific Reports, 2019)

Target: T1, Myc-IQGAP3 (human, UniProt Q86VI3 2-1631)
T1 construct: human IQGAP3 from a commercial cDNA (Dharmacon); full length IQGAP3 (corresponding to amino acids 2-1631) in pcDNA3; also called overexpressed IQGAP3; IQ3; source: HEK293, transfected, in lysate
Experiment: co-IP; HEK293 cells transfected with Myc-IQGAP3 alone or with Myc-Cdc42 (wt, Q61L or T17N); anti-IQGAP3 rabbit polyclonal antibody and Protein A-Sepharose 4 h at 4 C; lysis buffer 150 mM NaCl, 1% Triton X-100, 200 mM Tris-HCl pH 7.4; Western blot
Conditions: partners not purified

T1 sequence (Q86VI3 2-1631): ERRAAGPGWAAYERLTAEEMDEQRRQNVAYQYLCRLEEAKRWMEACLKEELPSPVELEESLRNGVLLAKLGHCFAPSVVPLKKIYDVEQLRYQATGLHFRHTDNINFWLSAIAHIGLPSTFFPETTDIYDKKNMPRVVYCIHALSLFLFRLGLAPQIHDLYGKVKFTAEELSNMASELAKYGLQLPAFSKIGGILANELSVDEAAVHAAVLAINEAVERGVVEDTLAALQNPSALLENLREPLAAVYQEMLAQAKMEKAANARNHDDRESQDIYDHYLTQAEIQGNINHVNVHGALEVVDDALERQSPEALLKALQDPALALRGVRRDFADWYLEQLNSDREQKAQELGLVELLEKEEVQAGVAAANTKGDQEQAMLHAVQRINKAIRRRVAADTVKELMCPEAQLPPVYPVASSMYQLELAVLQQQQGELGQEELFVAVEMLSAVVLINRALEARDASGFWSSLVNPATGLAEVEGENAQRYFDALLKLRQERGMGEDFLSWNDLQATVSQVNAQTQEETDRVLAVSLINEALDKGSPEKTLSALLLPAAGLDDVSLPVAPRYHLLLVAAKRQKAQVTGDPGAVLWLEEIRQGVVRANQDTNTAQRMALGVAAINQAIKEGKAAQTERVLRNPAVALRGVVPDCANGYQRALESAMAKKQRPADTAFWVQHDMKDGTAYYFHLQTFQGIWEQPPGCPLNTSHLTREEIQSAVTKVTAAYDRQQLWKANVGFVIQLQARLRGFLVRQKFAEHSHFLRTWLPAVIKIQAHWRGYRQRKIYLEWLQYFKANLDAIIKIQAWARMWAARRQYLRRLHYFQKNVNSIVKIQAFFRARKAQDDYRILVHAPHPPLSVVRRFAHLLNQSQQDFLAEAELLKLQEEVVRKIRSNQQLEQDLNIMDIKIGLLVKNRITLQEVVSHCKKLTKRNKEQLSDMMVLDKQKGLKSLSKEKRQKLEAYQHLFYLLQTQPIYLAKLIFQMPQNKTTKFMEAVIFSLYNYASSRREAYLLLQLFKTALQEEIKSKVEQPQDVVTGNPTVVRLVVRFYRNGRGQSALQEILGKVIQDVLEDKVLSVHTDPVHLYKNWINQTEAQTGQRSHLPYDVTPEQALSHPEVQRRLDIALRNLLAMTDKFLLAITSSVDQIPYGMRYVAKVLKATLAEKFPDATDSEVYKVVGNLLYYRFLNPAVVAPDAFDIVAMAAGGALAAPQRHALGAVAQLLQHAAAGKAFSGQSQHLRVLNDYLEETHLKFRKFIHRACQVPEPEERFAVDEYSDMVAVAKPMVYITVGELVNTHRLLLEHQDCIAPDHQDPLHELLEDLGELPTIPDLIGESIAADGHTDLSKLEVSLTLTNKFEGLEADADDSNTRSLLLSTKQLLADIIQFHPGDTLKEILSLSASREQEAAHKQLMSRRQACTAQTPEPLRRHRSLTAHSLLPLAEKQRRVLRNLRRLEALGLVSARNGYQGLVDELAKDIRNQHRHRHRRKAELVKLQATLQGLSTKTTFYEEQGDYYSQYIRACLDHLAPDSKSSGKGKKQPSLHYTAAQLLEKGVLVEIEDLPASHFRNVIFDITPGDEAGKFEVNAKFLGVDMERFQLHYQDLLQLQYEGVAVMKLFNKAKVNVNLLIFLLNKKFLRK

B1: Myc-Cdc42 constitutively active (Q61L) (natural protein)
chain: not shown
notes: Cdc42 Q61L cut from pGEX-2T-Cdc42-Q61L and inserted into pcDNA3; also called Myc-Cdc42-Q61L; Cdc42 Q61L; source: HEK293, transfected, in lysate
fold amount co-immunoprecipitated against wild type Cdc42: 1.7 fold
